{"source": "patent CN114075291A", "about": "(THE FIRST AFFILIATED HOSPITAL OF NAVAL MEDICAL UNIV OF …, dated 2022)", "binders": {"B1": {"name": "抗PSMA单链抗体1 (scFv, V domains shown)", "VH": "EVQLVESGGGVVQPGRSLRLSCAASGFTFSSYAMHWVRQAPGKGLEWVAVISYDGSNKYYADSVKGRFTISRDNSKNTLYLQMNSLRAEDTAVYYCARDYPLDDILTFPRVGTLDYWGQGTTVTVSS", "VL": "EIVLTQSPLSLPVTPGEPASISCRSSQSLLHSNGYNYLGWYLQKPGQSPQLLIYLGSNRASGVPDRFSGSGSGTDFTLKISRVEAEDVGVYYCMQALQTGFTFGPGTKVEIK", "notes": "Soluble scFv from a fully human phage library, made in E. coli TG1 and detected with APC anti 6XHis, so it carries a His tag; also called 抗体HTS0101; HTS0101"}}, "target": "T1, 人PSMA抗原 (前列腺特异性膜抗原, prostrate specific membrane antigen) (human, UniProt Q04609 1-750)", "T1 construct": "whole, on cells; it is treated here as the same protein; also called PSMA蛋白", "T1 sequence (Q04609 whole entry)": "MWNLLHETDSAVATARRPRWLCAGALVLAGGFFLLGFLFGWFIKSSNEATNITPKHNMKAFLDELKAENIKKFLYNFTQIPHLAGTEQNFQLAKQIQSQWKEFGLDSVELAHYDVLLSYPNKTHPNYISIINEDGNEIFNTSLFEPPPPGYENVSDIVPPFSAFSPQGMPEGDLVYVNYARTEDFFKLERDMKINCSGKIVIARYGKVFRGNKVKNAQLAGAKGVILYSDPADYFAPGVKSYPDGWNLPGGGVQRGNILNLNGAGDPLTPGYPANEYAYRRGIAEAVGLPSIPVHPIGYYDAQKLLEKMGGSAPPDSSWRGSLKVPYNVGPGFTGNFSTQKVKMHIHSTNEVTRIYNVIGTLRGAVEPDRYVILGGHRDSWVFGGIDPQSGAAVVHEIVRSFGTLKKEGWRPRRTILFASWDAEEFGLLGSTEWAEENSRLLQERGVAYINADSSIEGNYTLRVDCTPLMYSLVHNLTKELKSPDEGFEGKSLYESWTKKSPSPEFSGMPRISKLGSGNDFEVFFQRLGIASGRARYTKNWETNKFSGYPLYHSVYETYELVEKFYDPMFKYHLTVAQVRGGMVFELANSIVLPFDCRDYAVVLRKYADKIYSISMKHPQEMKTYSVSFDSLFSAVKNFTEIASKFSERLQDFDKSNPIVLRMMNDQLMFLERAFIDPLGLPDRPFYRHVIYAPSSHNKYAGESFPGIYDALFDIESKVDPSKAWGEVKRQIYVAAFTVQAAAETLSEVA", "test": "FACS, scFv culture supernatant on 293T-PSMA cells, APC anti 6XHis secondary"}
{"binder": "B1", "values": [{"measurement": "binding result", "result": "binds"}]}
